Positions count from the first letter of the chain named. Numbers in names are those of the source.

Data set [1] has as its target T1, GC1 (GC-E, ROS-GC1, RetGC1) (Homo sapiens, UniProt Q02846).
T1 construct: gene GUCY2D
T1 sequence (Q02846 52-1103): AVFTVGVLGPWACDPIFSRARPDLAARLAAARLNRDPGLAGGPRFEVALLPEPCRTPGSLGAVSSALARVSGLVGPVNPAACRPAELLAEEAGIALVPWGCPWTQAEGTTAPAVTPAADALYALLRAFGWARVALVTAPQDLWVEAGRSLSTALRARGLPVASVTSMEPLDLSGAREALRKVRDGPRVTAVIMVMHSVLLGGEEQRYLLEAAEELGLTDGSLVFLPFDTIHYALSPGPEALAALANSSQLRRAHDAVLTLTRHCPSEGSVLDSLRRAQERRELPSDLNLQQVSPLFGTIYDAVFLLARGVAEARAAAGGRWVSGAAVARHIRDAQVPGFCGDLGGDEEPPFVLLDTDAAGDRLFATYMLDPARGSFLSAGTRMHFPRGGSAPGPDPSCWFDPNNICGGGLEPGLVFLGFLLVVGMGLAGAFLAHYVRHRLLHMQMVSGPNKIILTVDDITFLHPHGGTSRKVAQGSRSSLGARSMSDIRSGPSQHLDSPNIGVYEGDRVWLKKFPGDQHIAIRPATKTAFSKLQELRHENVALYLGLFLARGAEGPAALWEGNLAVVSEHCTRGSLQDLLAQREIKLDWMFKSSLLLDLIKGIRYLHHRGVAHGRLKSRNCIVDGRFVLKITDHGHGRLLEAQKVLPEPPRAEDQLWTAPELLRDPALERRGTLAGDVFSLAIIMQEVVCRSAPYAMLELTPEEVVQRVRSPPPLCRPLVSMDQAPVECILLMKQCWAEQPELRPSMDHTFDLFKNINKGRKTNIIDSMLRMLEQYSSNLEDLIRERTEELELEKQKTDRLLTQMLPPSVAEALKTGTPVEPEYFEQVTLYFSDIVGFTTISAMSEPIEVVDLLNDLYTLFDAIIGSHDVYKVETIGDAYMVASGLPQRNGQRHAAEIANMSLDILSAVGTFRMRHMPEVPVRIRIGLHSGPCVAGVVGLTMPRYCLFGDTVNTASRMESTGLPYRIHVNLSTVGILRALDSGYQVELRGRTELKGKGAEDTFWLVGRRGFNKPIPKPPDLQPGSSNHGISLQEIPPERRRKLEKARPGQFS
T1 sequence (O95843 2-209 partner): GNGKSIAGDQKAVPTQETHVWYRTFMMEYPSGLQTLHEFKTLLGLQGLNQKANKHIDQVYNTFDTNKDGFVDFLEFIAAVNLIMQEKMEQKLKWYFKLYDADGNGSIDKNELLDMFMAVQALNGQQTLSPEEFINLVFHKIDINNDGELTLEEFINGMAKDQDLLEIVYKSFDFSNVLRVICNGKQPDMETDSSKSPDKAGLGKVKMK
The experiment in a line: cGMP production by reversed-phase HPLC. In kind it is biochemical. Particulars: GC1 membranes, 1 mM free Mg2+, low (<19 nM) or high (~30 µM) Ca2+, pH 7.4; basal and with mGCAP3 or mGCAP1.

Data set [2] concerns the molecule itself. The experiment in a line: SEC; analytical SEC, Superose 12 10/300GL, ~40 µM protein loaded, 20 mM Tris-HCl pH 7.5, 150 mM KCl, 1 mM DTT, 500 µM EGTA (apo), 25 °C; apparent MM from a calibration curve. On the technique in general: Size exclusion chromatography separates by hydrodynamic size, large species first.
Data set [3] concerns the molecule itself. The experiment in a line: SEC; analytical SEC, Superose 12 10/300GL, ~40 µM protein loaded, 20 mM Tris-HCl pH 7.5, 150 mM KCl, 1 mM DTT, 1 mM Mg2+ and 500 µM Ca2+, 25 °C; apparent MM from a calibration curve.

As to `Nc1nc2c(ncn2[C@@H]2O[C@@H]3COP(=O)(O)O[C@H]3[C@H]2O)c(=O)[nH]1` [cGMP], the “cGMP production by reversed-phase HPLC” value in data set [1] was “The production of cGMP was analyzed by reversed phase HPLC”.

B1: non-myristoylated wild-type human GCAP3 (guanylate cyclase-activating protein 3) (natural protein, UniProt O95843-1 1-209, looked up)
chain: MGNGKSIAGDQKAVPTQETHVWYRTFMMEYPSGLQTLHEFKTLLGLQGLNQKANKHIDQVYNTFDTNKDGFVDFLEFIAAVNLIMQEKMEQKLKWYFKLYDADGNGSIDKNELLDMFMAVQALNGQQTLSPEEFINLVFHKIDINNDGELTLEEFINGMAKDQDLLEIVYKSFDFSNVLRVICNGKQPDMETDSSKSPDKAGLGKVKMK
notes: Cloned into a plasmid named pET11-E6S; also called nmWT; nmWT GCAP3
What is called stoichiometry N is a count of units in the complex or per binding partner. Take B1: the “stoichiometry N” value in data set [2] was 2.

B2: myristoylated wild-type human GCAP3 (guanylate cyclase-activating protein 3) (natural protein, UniProt O95843-1 1-209, looked up)
chain: B1 chain
modifications: N-terminal myristoylation (degree of myristoylation 58.35%)
notes: Cloned into a plasmid named pET11-E6S; The sample is a mix of about 58% myristoylated and the rest non-myristoylated protein; also called mWT; mWT GCAP3
As to B2, the “stoichiometry N” value in data set [2] was found to be 2.

B3: non-myristoylated D101H variant of human GCAP3 (natural protein, UniProt O95843-1 1-209, looked up)
chain: B1 chain with D101H
notes: Variant found in a patient with retinitis pigmentosa; Cloned into a plasmid named pET11-E6S; also called nmD101H; nmD101H GCAP3
Regarding B3, the “stoichiometry N” value in data set [3] was determined as 2.
